Data on three compounds can be found in PMC7586803, “Click‐Chemistry (CuAAC) Trimerization of an αvβ6 Integrin Targeting Ga‐68‐Peptide: Enhanced Contrast for in‐Vivo PET Imaging of Human Lung Adenocarcinoma Xenografts” (Chembiochem, 2020).

Where two headings read alike, the source gives them in different places.

The tissue uptake is the percentage of the injected dose found per gram of tissue. As usually defined, the IC50 is the midpoint of a concentration-inhibition curve. In general, logD refers to lipophilicity at a set pH, counting ionised and neutral species. Read a high logD as a more lipophilic compound.

Data set [1] has as its system H2009 xenografted SCID mice. The data set can be described thus: in vivo. As to conditions: mouse. As for the experimental part:
(§1) Mice were used for biodistribution or PET when tumors had grown to a diameter of 8–10 mm (4–5 weeks after inoculation). β6 Integrin immunohistochemistry (IHC) was performed as described before.37
(§2) For biodistribution studies, the mice were administered approximately 120 pmol (3–8 MBq, depending on radiolabeling yield and decay) of the radiopharmaceuticals into the tail vein and allowed to wake up with access to food and water. […] Animals were sacrificed 90 min after injection, blood was immediately taken from the heart with a syringe, and the organs of interest (heart, lung, liver, spleen, pancreas, stomach (empty), small intestine (empty), large intestine (empty), kidneys, adrenals, muscle, tongue, tumor, tail) were dissected. The activity in weighed tissue samples was quantified by using a γ‐counter. Injected dose per gram tissue (%ID/g) was calculated from the organ weights and counted activities.

The nature of the next data set: in vivo. As to conditions: female, CB17 SCID, mouse, iv, 120 pmol, total radioactivity. How it is done: as §1, §2
Data set [2] deals with T1, αvβ8 integrin (Homo sapiens, UniProt P06756+P26012). Nature of the data set: Solid-phase binding assay (ELISA on immobilized integrins), αvβ8. As to conditions: LAP(TGF-β)-coated plates, non-radioactive 69/71Ga complex, determined in duplicate, referenced to internal standard […], read-out: IC50 (95 % confidence interval) αvβ8. As for the experimental part:
(§3) After washing the plates with PBS‐T buffer (phosphate‐buffered saline/Tween20), free binding sites were blocked by incubation with TS‐B buffer (Tris‐saline/BSA). […] Surface‐bound integrin was detected by subsequent incubation with a specific primary antibody and a secondary peroxidase‐labeled antibody (anti‐mouse IgG‐POD, Sigma–Aldrich). After addition of the dye SeramunBlau (Seramun Diagnostic, Heidesee, Germany) and quenching of the reaction by addition of 3 M H2SO4, the absorbance at λ=450 nm was measured with a microplate reader (Tecan Genius, Männedorf, Switzerland). The IC50 value for each compound was determined in duplicate and the inhibition curves were analyzed by using OriginPro 9.0 software.
Background: In an ELISA, binding on a coated surface is turned into a signal by an enzyme label.

A further data set in a line: physchem. Format: physicochemical. As to conditions: pH 7.4. How it is done: To determine the n‐octanol/PBS distribution coefficients (log D 7.4), 650 μL octan‐1‐ol and 650 μL phosphate‐buffered saline (PBS, pH 7.4) were combined in a 1.5 mL Eppendorf tube. Approximately 0.5 MBq of the radiolabeled compound was added and vortexed for 2 min at 2850 rpm using a Vortex Genie2 (Scientific Industries). The samples were centrifuged (11 500 g, 10 min), after which 100 μL of the organic phase and 10 μL of the aqueous phase were taken out and the activities of the aliquots were quantified in a γ‐counter.

For data set [3], the target named is T2, αvβ6 integrin (Homo sapiens, UniProt P06756+P18564). The data set can be described thus: Solid-phase binding assay (ELISA on immobilized integrins), αvβ6. How it is done:
as §3

The target in data set [4] is T2, αvβ6 integrin. As to conditions: activity of the internal standard to which measured IC50 values were referenced; cited from earlier work. From the text: (§4) Table 1 Integrin affinities (expressed as 50 % inhibition concentrations, IC50), IC50‐based selectivities, and octanol/PBS distribution coefficients (log D 7.4).
In data set [5] the target is T1, αvβ8 integrin. As to conditions: activity of the internal standard to which measured IC50 values were referenced; cited from earlier work.
Excerpt: as §4

Where [6] appears, read: %ID/g Tumor H2009 (tumor uptake).
Setting [7] is: tumor/organ ratio Heart (myocard).
[8] abbreviates: tumor/organ ratio Large intestine (empty).
Setting [9] is: tumor/organ ratio Small intestine (empty).
[10] abbreviates: tumor/organ ratio Stomach (empty).

T2 sequence (P06756 31-992 limits assumed): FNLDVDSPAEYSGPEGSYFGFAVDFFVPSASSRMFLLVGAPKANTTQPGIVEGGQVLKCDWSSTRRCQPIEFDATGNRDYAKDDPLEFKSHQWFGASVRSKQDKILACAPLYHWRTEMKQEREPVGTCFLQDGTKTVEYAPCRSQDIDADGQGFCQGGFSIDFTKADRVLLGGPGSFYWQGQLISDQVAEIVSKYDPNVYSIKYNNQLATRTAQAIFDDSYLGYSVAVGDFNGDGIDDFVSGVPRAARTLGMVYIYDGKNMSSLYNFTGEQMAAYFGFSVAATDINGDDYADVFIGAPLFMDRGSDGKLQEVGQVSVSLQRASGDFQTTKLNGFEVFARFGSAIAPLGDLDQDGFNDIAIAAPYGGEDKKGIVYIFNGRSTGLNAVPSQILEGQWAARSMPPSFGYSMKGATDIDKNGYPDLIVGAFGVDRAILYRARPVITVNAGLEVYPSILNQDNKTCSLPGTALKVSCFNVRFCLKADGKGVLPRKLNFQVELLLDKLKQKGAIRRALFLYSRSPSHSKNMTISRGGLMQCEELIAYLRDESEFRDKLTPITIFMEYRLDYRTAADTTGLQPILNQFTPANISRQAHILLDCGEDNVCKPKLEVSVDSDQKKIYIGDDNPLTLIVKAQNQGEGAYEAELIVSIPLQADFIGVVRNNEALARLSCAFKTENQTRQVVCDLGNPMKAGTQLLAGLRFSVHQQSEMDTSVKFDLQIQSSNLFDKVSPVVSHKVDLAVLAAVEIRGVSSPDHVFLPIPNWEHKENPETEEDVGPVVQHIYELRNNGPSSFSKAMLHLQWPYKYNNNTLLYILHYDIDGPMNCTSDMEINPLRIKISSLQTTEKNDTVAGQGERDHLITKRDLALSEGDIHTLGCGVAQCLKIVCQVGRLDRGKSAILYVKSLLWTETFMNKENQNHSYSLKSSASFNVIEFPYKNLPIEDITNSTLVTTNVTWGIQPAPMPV
T2 sequence (P18564 22-707 limits assumed): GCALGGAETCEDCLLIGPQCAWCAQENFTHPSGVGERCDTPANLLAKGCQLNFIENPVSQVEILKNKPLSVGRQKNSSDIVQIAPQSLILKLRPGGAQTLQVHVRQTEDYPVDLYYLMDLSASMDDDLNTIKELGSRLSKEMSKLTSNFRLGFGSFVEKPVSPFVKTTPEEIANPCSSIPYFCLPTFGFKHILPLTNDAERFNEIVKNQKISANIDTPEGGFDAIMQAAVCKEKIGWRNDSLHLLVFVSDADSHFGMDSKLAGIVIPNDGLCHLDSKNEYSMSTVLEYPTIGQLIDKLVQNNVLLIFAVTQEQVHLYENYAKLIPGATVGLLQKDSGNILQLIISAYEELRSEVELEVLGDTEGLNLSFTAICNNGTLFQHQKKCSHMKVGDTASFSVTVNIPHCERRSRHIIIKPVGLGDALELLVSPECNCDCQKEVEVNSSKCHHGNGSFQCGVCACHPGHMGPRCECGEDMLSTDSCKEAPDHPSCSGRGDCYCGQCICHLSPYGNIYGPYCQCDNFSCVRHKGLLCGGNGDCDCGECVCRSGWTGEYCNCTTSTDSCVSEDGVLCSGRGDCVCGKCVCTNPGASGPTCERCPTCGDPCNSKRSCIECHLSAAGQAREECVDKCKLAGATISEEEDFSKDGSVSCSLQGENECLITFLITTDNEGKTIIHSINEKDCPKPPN
T1 sequence (P06756 31-992 limits assumed): as the sequence (P06756 31-992 limits assumed) above
T1 sequence (P26012 43-684 limits assumed): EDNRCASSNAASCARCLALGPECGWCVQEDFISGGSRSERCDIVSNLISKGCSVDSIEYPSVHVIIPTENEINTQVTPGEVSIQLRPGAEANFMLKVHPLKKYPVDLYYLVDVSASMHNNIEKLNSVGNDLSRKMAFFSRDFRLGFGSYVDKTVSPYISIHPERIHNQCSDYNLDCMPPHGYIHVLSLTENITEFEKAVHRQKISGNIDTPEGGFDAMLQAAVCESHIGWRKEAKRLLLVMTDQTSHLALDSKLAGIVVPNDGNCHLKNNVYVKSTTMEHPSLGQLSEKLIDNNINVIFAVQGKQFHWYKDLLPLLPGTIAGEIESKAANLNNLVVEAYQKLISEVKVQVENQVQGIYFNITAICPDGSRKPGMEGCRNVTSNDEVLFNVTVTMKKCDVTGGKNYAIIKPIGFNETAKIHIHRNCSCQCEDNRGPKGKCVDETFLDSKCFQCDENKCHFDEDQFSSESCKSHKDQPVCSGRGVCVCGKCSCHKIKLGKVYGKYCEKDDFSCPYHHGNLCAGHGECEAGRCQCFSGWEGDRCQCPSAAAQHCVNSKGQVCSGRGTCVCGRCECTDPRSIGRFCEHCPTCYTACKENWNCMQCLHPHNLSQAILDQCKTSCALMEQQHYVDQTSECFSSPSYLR

Consider `N=C(N)NCCC[C@@H]1NC(=O)CC[C@@H](C(=O)NCCCC[C@H](NC(=O)CCc2cn(CCCNC(=O)CCP(=O)(O)CN3CCN(CP(=O)(O)CCC(=O)NCCCn4cc(CCC(=O)N[C@@H](CCCCNC(=O)[C@@H]5CCC(=O)N[C@@H](CCCNC(=N)N)C(=O)NCC(=O)N[C@@H](CC(=O)O)C(=O)N[C@@H](C6CCCCC6)C(=O)N5)C(N)=O)nn4)CCN(CP(=O)(O)CCC(=O)NCCCn4cc(CCC(=O)N[C@@H](CCCCNC(=O)[C@@H]5CCC(=O)N[C@@H](CCCNC(=N)N)C(=O)NCC(=O)N[C@@H](CC(=O)O)C(=O)N[C@@H](C6CCCCC6)C(=O)N5)C(N)=O)nn4)CC3)nn2)C(N)=O)NC(=O)[C@H](C2CCCCC2)NC(=O)[C@H](CC(=O)O)NC(=O)CNC1=O` [^68Ga‐TRAP(SDM17)3, metal not drawn], for which, in data set [1], the “higher tumor uptake than monomer” value is listed as “threefold”. Also, the tissue uptake at 1.5 h in “in vivo” (%ID/g Adrenals) was 0.16 ± 0.02 %ID/g; in “in vivo” (%ID/g Blood), 0.19 ± 0.05 %ID/g; in the data set “in vivo” (%ID/g Heart (myocard)), 0.1 ± 0.03 %ID/g; in the data set “in vivo” (%ID/g Kidneys), 21.8 ± 2.7 %ID/g; in “in vivo” (%ID/g Large intestine (empty)), 0.41 ± 0.09 %ID/g; in “in vivo” (%ID/g Liver), 0.34 ± 0.21 %ID/g. The tissue uptake at 1.5 h in the data set “in vivo” (%ID/g Lung) turned out to be 0.71 ± 0.15 %ID/g; in the data set “in vivo” (%ID/g Muscle) it was 0.1 ± 0.02 %ID/g; in the data set “in vivo” (%ID/g Pancreas), 0.07 ± 0.01 %ID/g; in “in vivo” (%ID/g Small intestine (empty)), 0.31 ± 0.08 %ID/g; in “in vivo” (%ID/g Spleen), 0.58 ± 0.11 %ID/g; in the data set “in vivo” (%ID/g Stomach (empty)) it was 1.04 ± 0.22 %ID/g. For the same compound, the tissue uptake at 1.5 h was 0.35 ± 0.09 %ID/g in the data set “in vivo” (%ID/g Tongue) and 2.06 ± 0.34 %ID/g in the data set “in vivo” (setting [6]). In addition, the tissue to tissue ratio at 1.5 h turned out to be 12.5 ± 1.6 in the data set “in vivo” (tumor/organ ratio Adrenals); 11.2 ± 1.9 in the data set “in vivo” (tumor/organ ratio Blood); 21.7 ± 3 in the data set “in vivo” (setting [7]); 0.1 in “in vivo” (tumor/organ ratio Kidneys); 5.1 ± 1.2 in “in vivo” (setting [8]); 8.7 ± 5.2 in the data set “in vivo” (tumor/organ ratio Liver). In addition, the tissue to tissue ratio at 1.5 h worked out at 3 ± 0.4 in the data set “in vivo” (tumor/organ ratio Lung); 22.3 ± 6.6 in the data set “in vivo” (tumor/organ ratio Muscle); 29.7 ± 3 in the data set “in vivo” (tumor/organ ratio Pancreas); 7 ± 1.7 in “in vivo” (setting [9]); 3.6 ± 0.6 in “in vivo” (tumor/organ ratio Spleen); 2 ± 0.4 in the data set “in vivo” (setting [10]). Also, in the data set “in vivo” (tumor/organ ratio Tongue), the tissue to tissue ratio at 1.5 h was determined as 6.2 ± 1.8. Moreover, the IC50 on αvβ8 integrin [2] was 172 nM; on αvβ6 integrin [3] (ELISA, LAP(TGF-β)-coated plates, non-radioactive 69/71Ga complex, determined in duplicate, referenced to internal standard […], read-out: IC50 (95 % confidence interval) αvβ6) it was 0.26 nM. In the data set “physchem”, the logD is -4.08 ± 0.07. Also, the “Selectivity for αvβ6 over αvβ8” value at αvβ6 integrin [3] (IC50-based selectivity factor (IC50 αvβ8 / IC50 αvβ6)) is recorded as 662.

As to RTDLDSLRT, the IC50 is 33 nM with αvβ6 integrin [4] and 100 nM with αvβ8 integrin [5].

As for `N=C(N)NCCC[C@@H]1NC(=O)CC[C@@H](C(=O)NCCCC[C@H](NC(=O)c2ccc(NC(=O)CN3CCN(CC(=O)O)CCN(CC(=O)O)CC3)cc2)C(N)=O)NC(=O)[C@H](C2CCCCC2)NC(=O)[C@H](CC(=O)O)NC(=O)CNC1=O` [^68Ga‐NOTA‐SDM17, metal not drawn], the tissue uptake at 1.5 h in “in vivo” (%ID/g Adrenals) was determined as 0.28 ± 0.09 %ID/g; in the data set “in vivo” (%ID/g Blood), 0.64 ± 0.05 %ID/g; in “in vivo” (%ID/g Heart (myocard)) it was 0.2 ± 0.03 %ID/g; in the data set “in vivo” (%ID/g Kidneys), 3.74 ± 0.73 %ID/g; in the data set “in vivo” (%ID/g Large intestine (empty)), 0.22 ± 0.03 %ID/g; in the data set “in vivo” (%ID/g Liver) it was 0.33 ± 0.04 %ID/g. The tissue uptake at 1.5 h in “in vivo” (%ID/g Lung) was found to be 0.47 ± 0.03 %ID/g; in “in vivo” (%ID/g Muscle), 0.07 ± 0.01 %ID/g; in the data set “in vivo” (%ID/g Pancreas) it was 0.15 ± 0.02 %ID/g; in “in vivo” (%ID/g Small intestine (empty)), 0.22 ± 0.01 %ID/g; in the data set “in vivo” (%ID/g Spleen), 0.32 ± 0.06 %ID/g; in “in vivo” (%ID/g Stomach (empty)) it was 0.34 ± 0.06 %ID/g. Besides, the tissue uptake at 1.5 h in “in vivo” (%ID/g Tongue) stood at 0.28 ± 0.03 %ID/g; in “in vivo” (setting [6]), 0.66 ± 0.03 %ID/g. For the same compound, the tissue to tissue ratio at 1.5 h in “in vivo” (tumor/organ ratio Adrenals) stood at 2.5 ± 0.7; in the data set “in vivo” (tumor/organ ratio Blood), 1 ± 0.1; in the data set “in vivo” (setting [7]), 3.3 ± 0.6; in “in vivo” (tumor/organ ratio Kidneys), 0.2; in “in vivo” (setting [8]) it was 3.1 ± 0.4; in “in vivo” (tumor/organ ratio Liver), 2 ± 0.3. For the same compound, the tissue to tissue ratio at 1.5 h amounted to 1.4 ± 0.1 in “in vivo” (tumor/organ ratio Lung); 9.7 ± 0.7 in “in vivo” (tumor/organ ratio Muscle); 4.4 ± 0.8 in “in vivo” (tumor/organ ratio Pancreas); 3 ± 0.1 in the data set “in vivo” (setting [9]); 2.1 ± 0.4 in “in vivo” (tumor/organ ratio Spleen); 2 ± 0.4 in the data set “in vivo” (setting [10]). Besides, the tissue to tissue ratio at 1.5 h in the data set “in vivo” (tumor/organ ratio Tongue) was found to be 2.4 ± 0.3. In the data set “physchem”, this compound registered a logD of -3.91 ± 0.07.
